Test results taken from patent US20150258192A1, “COMPOSITIONS AND METHODS FOR PREVENTING OR TREATING CHRONIC LUNG ALLOGRAFT DYSFUNCTION (CLAD) AND IDIOPATHIC PULMONARY FIBROSIS (IPF)” (priority 2014, published 2015).
No end group written: not given here.

Experiments:
Test in all cases: Kinase Profiling Assay
Format in all cases: biochemical
Conditions in all cases: peptide 100 μM
[1] = molecular target: T1, JNK2α2(h) (Homo sapiens, UniProt P45984)
T1 construct: purchased Millipore
Outline: (§1)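 Specificity of MK2 inhibitory peptides is assessed against a panel of 266 human kinases. Kinase transfers a radiolabeled phosphate from ATP onto a positively charged substrate, which is trapped on a negatively charged filter and quantified by scintillation counting against full-activity control; duplicate determinations.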

[2] = molecular target: AMPKα1(h) (Homo sapiens, UniProt Q13131)
Outline: as §1

[3] = molecular target: PKCα(h) (Homo sapiens, UniProt P17252)
Outline: as §1

[4] = molecular target: T2, ARK5(h) (Homo sapiens, UniProt O60285)
T2 sequence (O60285 1-661): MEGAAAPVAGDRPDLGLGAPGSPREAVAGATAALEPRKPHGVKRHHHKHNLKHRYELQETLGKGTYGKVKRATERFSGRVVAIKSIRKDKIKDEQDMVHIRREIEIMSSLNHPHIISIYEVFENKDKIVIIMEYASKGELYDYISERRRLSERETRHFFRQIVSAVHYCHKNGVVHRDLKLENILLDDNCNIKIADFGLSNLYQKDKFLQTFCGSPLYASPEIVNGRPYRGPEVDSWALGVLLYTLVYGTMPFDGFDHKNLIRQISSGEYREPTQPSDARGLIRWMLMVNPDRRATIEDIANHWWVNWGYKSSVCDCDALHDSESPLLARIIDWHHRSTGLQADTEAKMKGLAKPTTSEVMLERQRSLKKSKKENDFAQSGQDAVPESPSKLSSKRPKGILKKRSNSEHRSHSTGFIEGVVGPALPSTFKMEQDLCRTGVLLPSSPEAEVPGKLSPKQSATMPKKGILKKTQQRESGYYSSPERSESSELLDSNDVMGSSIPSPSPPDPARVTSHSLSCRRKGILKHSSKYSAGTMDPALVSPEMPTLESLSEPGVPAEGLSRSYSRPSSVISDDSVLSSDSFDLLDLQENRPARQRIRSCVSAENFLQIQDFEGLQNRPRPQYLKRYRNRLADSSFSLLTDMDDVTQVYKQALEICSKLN
Outline: as §1

[5] = molecular target: Fyn(h) (Homo sapiens, UniProt P06241)
Outline: as §1

[6] = molecular target: Pyk2(h) (Homo sapiens, UniProt Q14289)
Outline: as §1

[7] = molecular target: Plk3(h) (Homo sapiens, UniProt Q9H4B4)
Outline: as §1

[8] = molecular target: CaMKIδ(h) (Homo sapiens, UniProt Q8IU85)
Outline: as §1

[9] = molecular target: T3, SAPK4(h) (Homo sapiens, UniProt O15264)
T3 construct: purchased Millipore
T3 sequence (O15264 1-365): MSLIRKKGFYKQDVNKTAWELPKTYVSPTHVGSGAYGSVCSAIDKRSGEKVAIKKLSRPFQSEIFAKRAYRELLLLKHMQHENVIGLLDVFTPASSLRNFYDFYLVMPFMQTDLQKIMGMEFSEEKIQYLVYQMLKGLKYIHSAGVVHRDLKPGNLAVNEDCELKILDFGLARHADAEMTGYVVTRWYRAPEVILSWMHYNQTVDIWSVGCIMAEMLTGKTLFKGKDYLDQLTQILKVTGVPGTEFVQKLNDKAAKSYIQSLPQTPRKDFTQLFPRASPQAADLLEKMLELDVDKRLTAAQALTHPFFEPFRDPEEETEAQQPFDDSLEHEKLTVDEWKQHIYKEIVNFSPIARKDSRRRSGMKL
Outline: as §1

[10] = molecular target: Ret(V804M)(h) (Homo sapiens, UniProt P07949, V804M)
Outline: as §1

[11] = molecular target: T4, PKCζ(h) (Homo sapiens, UniProt Q05513)
T4 sequence (Q05513 1-592): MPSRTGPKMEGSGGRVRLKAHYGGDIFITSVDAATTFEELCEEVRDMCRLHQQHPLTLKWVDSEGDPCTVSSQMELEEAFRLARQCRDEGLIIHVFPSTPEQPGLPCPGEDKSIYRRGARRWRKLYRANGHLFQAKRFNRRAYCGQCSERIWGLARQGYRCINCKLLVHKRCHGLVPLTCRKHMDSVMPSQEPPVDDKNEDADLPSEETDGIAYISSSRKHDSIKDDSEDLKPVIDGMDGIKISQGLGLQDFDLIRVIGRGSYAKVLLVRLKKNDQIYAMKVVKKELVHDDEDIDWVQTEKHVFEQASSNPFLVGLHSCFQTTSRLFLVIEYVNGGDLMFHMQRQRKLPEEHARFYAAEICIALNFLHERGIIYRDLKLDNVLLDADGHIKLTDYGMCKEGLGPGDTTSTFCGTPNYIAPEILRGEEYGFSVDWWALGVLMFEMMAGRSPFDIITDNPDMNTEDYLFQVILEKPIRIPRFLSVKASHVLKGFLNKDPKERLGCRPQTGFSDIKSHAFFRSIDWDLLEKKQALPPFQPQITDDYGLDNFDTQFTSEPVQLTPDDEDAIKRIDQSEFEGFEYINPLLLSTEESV
Outline: as §1

[12] = molecular target: T5, SAPK2a(h) (Homo sapiens, UniProt Q16539)
T5 construct: purchased Millipore
Outline: as §1

[13] = molecular target: T6, Rsk3(h) (Homo sapiens, UniProt Q15349)
T6 construct: purchased Millipore
Outline: as §1

Chain of Pyk2(h) (Q14289 whole entry): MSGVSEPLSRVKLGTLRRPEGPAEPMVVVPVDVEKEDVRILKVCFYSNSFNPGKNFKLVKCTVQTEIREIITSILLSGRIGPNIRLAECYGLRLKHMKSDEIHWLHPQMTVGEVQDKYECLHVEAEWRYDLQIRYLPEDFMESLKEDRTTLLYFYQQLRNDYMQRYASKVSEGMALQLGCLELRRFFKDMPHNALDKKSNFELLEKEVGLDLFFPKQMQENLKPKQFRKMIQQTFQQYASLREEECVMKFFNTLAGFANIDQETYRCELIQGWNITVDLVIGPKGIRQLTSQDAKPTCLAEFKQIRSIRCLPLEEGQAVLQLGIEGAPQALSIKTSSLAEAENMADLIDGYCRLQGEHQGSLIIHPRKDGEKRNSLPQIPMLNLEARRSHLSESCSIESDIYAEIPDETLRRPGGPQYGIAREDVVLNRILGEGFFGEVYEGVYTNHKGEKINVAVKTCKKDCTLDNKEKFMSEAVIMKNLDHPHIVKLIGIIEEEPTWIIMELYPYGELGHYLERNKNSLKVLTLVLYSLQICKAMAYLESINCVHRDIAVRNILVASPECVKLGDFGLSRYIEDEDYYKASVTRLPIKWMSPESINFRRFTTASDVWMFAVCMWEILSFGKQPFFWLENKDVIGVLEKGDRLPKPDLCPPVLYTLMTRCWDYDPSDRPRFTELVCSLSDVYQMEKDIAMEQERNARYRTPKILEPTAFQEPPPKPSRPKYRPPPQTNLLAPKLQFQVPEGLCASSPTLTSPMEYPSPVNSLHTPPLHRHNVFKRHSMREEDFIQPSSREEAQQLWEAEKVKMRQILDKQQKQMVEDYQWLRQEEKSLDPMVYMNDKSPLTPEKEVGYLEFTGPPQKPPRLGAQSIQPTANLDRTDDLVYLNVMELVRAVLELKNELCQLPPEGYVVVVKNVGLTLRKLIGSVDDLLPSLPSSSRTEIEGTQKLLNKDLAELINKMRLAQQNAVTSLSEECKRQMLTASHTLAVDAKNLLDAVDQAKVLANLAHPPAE
Chain of AMPKα1(h) (Q13131 whole entry): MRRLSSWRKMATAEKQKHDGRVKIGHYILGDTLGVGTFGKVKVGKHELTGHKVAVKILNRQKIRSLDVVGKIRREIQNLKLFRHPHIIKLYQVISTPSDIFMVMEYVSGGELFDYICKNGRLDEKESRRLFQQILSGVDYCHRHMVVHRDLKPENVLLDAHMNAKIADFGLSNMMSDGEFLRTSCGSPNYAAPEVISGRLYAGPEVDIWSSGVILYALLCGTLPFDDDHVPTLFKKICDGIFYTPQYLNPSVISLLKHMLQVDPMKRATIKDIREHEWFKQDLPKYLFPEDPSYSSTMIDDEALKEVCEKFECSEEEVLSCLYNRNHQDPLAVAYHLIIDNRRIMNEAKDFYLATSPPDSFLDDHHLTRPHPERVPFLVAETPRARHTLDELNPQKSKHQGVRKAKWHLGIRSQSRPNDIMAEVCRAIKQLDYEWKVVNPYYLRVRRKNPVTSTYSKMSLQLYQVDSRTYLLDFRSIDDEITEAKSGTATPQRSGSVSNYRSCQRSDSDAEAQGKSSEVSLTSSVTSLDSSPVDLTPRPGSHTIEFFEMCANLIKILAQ
Chain of AMPKα1(h) (Q9Y478 whole entry partner): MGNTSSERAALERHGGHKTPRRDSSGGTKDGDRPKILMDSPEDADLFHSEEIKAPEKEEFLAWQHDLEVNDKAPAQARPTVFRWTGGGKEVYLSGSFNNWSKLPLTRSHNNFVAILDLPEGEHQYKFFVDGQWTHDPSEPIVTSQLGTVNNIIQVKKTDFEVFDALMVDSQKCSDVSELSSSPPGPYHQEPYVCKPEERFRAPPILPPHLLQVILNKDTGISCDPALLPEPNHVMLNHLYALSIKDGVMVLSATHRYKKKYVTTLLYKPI
Chain of AMPKα1(h) (P54619 whole entry partner): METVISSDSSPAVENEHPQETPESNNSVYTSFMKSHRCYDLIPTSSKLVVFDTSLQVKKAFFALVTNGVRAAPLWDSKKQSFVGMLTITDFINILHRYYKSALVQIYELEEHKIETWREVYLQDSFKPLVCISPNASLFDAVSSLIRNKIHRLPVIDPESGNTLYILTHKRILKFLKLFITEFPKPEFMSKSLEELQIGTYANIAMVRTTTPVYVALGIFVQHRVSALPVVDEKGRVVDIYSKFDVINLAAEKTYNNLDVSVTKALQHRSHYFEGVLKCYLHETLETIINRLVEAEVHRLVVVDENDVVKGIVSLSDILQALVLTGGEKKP
T5 sequence (Q16539 whole entry): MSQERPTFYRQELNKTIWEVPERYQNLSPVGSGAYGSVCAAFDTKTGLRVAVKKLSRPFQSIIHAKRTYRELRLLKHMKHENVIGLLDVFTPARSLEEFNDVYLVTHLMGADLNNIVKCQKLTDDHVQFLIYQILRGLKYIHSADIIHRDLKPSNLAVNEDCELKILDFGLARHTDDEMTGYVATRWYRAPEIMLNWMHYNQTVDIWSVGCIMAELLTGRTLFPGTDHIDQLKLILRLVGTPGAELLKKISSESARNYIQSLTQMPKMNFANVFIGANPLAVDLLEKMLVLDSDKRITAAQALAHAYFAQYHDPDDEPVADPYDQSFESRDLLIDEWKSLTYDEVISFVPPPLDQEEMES
Chain of CaMKIδ(h) (Q8IU85 whole entry): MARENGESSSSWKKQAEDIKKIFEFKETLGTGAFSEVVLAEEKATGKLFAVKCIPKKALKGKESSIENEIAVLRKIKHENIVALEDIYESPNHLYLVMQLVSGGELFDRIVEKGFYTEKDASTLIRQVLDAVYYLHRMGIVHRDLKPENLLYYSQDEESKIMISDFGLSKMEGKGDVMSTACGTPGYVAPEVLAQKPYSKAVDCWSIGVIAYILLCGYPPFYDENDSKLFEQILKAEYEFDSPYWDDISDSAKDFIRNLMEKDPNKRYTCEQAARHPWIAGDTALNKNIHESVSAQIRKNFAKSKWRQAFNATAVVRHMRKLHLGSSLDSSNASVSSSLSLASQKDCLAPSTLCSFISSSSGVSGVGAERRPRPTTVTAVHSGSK
Chain of Fyn(h) (P06241 whole entry): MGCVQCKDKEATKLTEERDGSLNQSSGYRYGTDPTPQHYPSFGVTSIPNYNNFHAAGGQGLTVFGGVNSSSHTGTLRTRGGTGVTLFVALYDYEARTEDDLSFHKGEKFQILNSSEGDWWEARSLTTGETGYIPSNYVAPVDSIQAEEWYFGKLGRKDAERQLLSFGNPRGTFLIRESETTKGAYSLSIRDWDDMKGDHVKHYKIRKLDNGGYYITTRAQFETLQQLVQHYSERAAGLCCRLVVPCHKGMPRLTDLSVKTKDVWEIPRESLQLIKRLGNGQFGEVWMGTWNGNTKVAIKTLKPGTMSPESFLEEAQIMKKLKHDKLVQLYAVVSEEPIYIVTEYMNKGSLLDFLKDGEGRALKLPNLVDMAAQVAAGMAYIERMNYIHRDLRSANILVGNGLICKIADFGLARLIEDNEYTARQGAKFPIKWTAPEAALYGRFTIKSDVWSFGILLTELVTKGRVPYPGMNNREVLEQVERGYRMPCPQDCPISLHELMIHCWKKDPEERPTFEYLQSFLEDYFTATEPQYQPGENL
Chain of Plk3(h) (Q9H4B4 whole entry): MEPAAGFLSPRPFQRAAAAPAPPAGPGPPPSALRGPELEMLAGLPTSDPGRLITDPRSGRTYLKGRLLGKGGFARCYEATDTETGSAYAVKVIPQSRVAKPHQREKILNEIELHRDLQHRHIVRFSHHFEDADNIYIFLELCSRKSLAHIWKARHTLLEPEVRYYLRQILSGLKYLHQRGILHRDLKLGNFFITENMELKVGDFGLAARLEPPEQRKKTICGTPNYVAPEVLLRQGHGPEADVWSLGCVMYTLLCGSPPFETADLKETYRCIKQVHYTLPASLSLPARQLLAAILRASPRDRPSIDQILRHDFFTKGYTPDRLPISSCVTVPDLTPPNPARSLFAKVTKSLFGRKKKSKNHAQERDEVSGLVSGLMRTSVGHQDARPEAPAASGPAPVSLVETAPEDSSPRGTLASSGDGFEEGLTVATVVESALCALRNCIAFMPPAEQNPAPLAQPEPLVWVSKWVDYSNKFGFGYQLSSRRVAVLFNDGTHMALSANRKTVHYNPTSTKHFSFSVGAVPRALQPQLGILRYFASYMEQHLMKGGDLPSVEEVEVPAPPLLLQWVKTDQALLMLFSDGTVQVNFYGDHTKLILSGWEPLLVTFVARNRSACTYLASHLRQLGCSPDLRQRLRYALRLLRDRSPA

Sequence: FAKLAARLYRKALARQLGVAA [MMI-0300]
- % activity [1]: 98%
- % activity [2]: 71%
- % activity [3]: 89%
- % activity [4]: 78%
- % activity [5]: 74%
- % activity [6]: 47%
- % activity [7]: 127%
- % activity [8]: 10%
- % activity [9]: 96%
- % activity [10]: 95%
- % activity [11]: 81%
- % activity [12]: 90%
- % activity [13]: 76%

Sequence: HRRIKAWLKKIKALARQLGVAA (Mammal) [MMI-0500]
- % activity [1]: 81%
- % activity [2]: 35%
- % activity [3]: 3%
- % activity [4]: 20%
- % activity [5]: 83%
- % activity [6]: 46%
- % activity [7]: 122%
- % activity [8]: 0%
- % activity [9]: 48%
- % activity [10]: 36%
- % activity [11]: 7%
- % activity [12]: 52%
- % activity [13]: 23%

Sequence: KAFAKLAARLYRKALARQLGVAA [MMI-0400]
- % activity [1]: 96%
- % activity [2]: 87%
- % activity [3]: 86%
- % activity [4]: 69%
- % activity [5]: 54%
- % activity [6]: 34%
- % activity [7]: 129%
- % activity [8]: 17%
- % activity [9]: 91%
- % activity [10]: 87%
- % activity [11]: 75%
- % activity [12]: 85%
- % activity [13]: 71%

Sequence: YARAAARQARAKALARQLGVAA [MMI-0100]
- % activity [4]: 108%
- % activity [10]: 92%
- % activity [11]: 82%

Sequence: YARAAARQARAKALNRQLGVA (Mammal) [MMI-0200]
- % activity [2]: 108%
- % activity [3]: 100%
- % activity [4]: 93%
- % activity [5]: 75%
- % activity [6]: 127%
- % activity [8]: 47%
- % activity [11]: 98%
